The text below walks through data of US20030119102A1 (Takeda / Millennium, published 2003).

B5: rKv1.1N (other, rat, UniProt P10499 1-164, looked up)
chain: MTVMSGENADEASAAPGHPQDGSYPRQADHDDHECCERVVINISGLRFETQLKTLAQFPNTLLGNPKKRMRYFDPLRNEYFFDRNRPSFDAILYYYQSGGRLRRPVNVPLDMFSEEIKFYELGEEAMEKFREDEGFIKEEERPLPEKEYQRQVWLLFEYPESSG
notes: Bait of the specificity test; the construct is not described; also called Kv1.1 subunits; rKvl.iN

The experiment “rKv1.1N” addresses B5. The experiment can be described thus: yeast two-hybrid.
Experiment [1] concerns the target T1, Kv2.1 (rat brain membranes) (rat, UniProt P15387 1-857).
T1 sequence (looked up): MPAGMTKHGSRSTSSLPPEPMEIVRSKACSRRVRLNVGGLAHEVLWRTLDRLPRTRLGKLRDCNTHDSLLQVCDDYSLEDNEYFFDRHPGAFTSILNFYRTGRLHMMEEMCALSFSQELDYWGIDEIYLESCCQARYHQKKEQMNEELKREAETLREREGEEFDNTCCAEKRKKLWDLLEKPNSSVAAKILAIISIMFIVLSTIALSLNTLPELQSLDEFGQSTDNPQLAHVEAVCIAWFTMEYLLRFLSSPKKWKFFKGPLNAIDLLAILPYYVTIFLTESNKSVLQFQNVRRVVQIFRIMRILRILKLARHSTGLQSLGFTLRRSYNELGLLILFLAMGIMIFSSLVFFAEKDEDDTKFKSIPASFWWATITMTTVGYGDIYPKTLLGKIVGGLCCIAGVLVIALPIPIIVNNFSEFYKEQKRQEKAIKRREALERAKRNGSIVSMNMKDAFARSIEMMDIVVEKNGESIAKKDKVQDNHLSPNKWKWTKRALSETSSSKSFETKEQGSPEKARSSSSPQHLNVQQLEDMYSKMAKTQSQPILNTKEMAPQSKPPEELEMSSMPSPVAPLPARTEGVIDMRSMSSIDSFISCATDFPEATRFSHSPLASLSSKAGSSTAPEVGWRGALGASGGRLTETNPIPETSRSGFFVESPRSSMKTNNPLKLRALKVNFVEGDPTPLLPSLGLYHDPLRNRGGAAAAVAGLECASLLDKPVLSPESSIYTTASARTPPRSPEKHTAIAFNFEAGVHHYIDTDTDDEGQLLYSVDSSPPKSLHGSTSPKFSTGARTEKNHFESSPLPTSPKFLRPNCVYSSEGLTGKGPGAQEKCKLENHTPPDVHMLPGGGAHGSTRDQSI
Kind of experiment: co-immunoprecipitation from rat brain synaptic membranes.

A further experiment deals with T2, rat 19r (rat, UniProt P16446 1-271, limits assumed).
T2 construct: also called partial rat 19r; phosphatidylinositol transfer protein alpha
T2 sequence: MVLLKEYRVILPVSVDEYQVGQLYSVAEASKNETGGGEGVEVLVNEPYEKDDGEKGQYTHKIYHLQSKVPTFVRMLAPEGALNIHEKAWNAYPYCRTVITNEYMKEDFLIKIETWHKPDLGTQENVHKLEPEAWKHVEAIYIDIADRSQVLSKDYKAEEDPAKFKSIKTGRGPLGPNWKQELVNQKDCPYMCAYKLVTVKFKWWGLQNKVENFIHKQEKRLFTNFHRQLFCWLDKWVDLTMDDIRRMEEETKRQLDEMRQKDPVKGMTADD
Kind of experiment: yeast two-hybrid.

For a further experiment, the target named is T3, rat 7s (rat, UniProt P50516 348-617 (mouse entry), limits assumed).
T3 construct: Partial-length clone, two-hybrid prey; Rat ortholog of the vacuolar H(+)-ATPase catalytic subunit A
Kind of experiment: yeast two-hybrid.

A further experiment concerns the target T4, rat 1p (rat, UniProt B9EHT4 181-427 (mouse entry), limits assumed).
T4 construct: Partial-length clone, two-hybrid prey; also called Ip; lp
T4 sequence: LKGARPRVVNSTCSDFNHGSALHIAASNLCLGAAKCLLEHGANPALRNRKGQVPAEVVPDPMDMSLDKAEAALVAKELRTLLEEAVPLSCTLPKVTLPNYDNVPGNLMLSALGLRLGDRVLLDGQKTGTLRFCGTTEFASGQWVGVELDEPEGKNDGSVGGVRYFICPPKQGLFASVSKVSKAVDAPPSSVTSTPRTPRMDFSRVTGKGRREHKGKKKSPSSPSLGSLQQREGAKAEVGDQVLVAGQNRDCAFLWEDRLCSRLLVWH
Kind of experiment: yeast two-hybrid.

Experiment [2] addresses T5, rat Kv4.2 α-subunit (rat, UniProt Q63881 1-630).
T5 sequence (looked up): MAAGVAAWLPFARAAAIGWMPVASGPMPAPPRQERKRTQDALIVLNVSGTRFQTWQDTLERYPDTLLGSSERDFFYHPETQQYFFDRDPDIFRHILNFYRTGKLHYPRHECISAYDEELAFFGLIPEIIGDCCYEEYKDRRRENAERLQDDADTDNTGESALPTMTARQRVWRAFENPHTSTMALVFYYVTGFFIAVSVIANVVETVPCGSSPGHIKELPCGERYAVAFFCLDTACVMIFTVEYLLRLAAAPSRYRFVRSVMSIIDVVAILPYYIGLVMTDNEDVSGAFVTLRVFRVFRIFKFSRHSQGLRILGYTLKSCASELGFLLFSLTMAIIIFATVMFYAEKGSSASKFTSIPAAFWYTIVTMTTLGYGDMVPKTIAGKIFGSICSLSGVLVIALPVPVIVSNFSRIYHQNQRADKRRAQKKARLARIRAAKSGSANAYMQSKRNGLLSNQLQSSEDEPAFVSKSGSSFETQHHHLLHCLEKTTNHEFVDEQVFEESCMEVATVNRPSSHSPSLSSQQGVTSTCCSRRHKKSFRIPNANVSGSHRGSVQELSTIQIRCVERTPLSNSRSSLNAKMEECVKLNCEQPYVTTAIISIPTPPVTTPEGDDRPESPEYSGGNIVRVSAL
Kind of experiment: cell-based or functional assay.

The target of experiment [3] is T5, rat Kv4.2 α-subunit. The experiment can be described thus: immunoprecipitation from rat brain membranes.

T3 sequence (P50516 348-617 limits assumed): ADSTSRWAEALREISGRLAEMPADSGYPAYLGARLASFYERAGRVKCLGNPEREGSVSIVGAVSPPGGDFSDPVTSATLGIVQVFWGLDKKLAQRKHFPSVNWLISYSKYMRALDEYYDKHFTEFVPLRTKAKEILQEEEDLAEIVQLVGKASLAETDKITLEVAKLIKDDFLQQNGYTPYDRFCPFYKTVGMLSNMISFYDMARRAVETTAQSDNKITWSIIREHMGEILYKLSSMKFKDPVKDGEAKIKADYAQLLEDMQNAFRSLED

B1: rat 33b07 (other)
chain: MNGVEGNNELPLANTSTSALVPEDLDLKQDQPLSEETDTVREMEAAGEAGAEGGASPDSEHCDPQLCLRVAENGCAAAAGEGLEDGLSSSKCGDAPLASVAANDSNKNGCQLAGPLSPAKPKTLEASGAVGLGSQMMPGPKKTKVMTTKGAISATTGKEGEAGAAMQEKKGVQKEKKAAGGGKDETRPRAPKINNCMDSLEAIDQELSNVNAQADRAFLQLERKFGRMRRLHMQRRSFIIQNIPGFWVTAFRNHPQLSPMISGQDEDMMRYMINLEVEELKHPRAGCKFKFIFQSNPYFRNEGLVKEYERRSSGRVVSLSTPIRWHRGQEPQAHIHRNREGNTIPSFFNWFSDHSLLEFDRIAEIIKGELWSNPLQYYLMGDGPRRGVRVPPRQPVESPRSFRFQSG
notes: also called partial rat 33b07 (clone name 9o)
As for B1, the binding result in the experiment with rKv1.1N is on record as “no binding”.

B2: rat 29x (other)
chain: ARLPAPEHARQQPLLSGPEPGSSARVPVPGVASRRQPRGGKPPSGDGLESGPSPRPLLHARGEAGLHRQSGRVPHTGTAYFADEPTEAQAPGGFCVSPSLLGVRWPACATRTPGSLPLSPPSAQPRTLWPTPPAGPSSRMVARNQVAADNAISPASEPRRRPEPSSSSSSSSPAAPARPRPCPVVPAPAPGDTHFRTFRSHSDYRRITRTSALLDACGFYWGPLSVHGAHERLRAEPVGTFLVRDSRQRNCFFALSVKMASGPTSIRVHFQAGRFHLDGSRETFDCLFELLEHYVAAPRRMLGAPLRQRRVRPLQELCRQRIVAAVGRENLARIPLNPVLRDYLSSFPFQI
notes: Two-hybrid prey; also called SOCS-1; JAB
As to B2, the binding result with rKv1.1N is “no binding”.

B3: KChIP2 of rat brain membranes (other, UniProt Q9JM59 1-270, looked up)
chain: MRGQGRKESLSESRDLDGSYDQLTGHPPGPSKKALKQRFLKLLPCCGPQALPSVSETLAAPASLRPHRPRPLDPDSVEDEFELSTVCHRPEGLEQLQEQTKFTRRELQVLYRGFKNECPSGIVNEENFKQIYSQFFPQGDSSNYATFLFNAFDTNHDGSVSFEDFVAGLSVILRGTIDDRLSWAFNLYDLNKDGCITKEEMLDIMKSIYDMMGKYTYPALREEAPREHVESFFQKMDRNKDGVVTIEEFIESCQQDENIMRSMQLFDNVI
notes: also called PCIPs (KChIPs 1, 2, and 3)
In the case of B3, the binding result in experiment [1] was “no binding”.

B4: rat 5p (other)
chain: MPSQMEHAMETMMLTFHRFAGEKNYLTKEDLRVLMEREFPGFLENQKDPLAVDKIMKDLDQCRDGKVGFQSFLSLVAGLIIACNDYFVVHMKQKK
notes: Two-hybrid prey; also called Calpactin I light chain; P10
For B4, the binding result with rKv1.1N was “no binding”.
With B5, the binding result with rat 19r, with rat 7s and with rat 1p was “no binding” in each case.

B6: KChIP3 of rat brain membranes (other, UniProt Q9JM47 1-256, looked up)
chain: MQRTKEAMKASDGSLLGDPGRIPLSKREGIKWQRPRFTRQALMRCCLIKWILSSAAPQGSDSSDSELELSTVRHQPEGLDQLQAQTKFTKKELQSLYRGFKNECPTGLVDEDTFKLIYSQFFPQGDATTYAHFLFNAFDADGNGAIHFEDFVVGLSILLRGTVHEKLKWAFNLYDINKDGYITKEEMLAIMKSIYDMMGRHTYPILREDAPLEHVERFFQKMDRNQDGVVTIDEFLETCQKDENIMSSMQLFENVI
notes: as for B3
As for B6, the binding result in experiment [1] was “no binding”.

B7: rat 7q (other)
chain: MAYAYLFKYIIIGDTGVGKSCLLLQFTDKRFQPVHDLTIGVEFGARMITIDGKQIKLQIWDTAGQESFRSITRSYYRGAAGALLVYDITRRDTFNHLTTWLEDARQHSNSNMVIMLIGNKSDLESRREVKKEEGEAFAREHGLIFMETSAKTASNVEEAFINTAKEIYEKIQEGVFDINNEANGIKIGPQHAATNASHGGNQGGQQAGGGCC
notes: Two-hybrid prey; The full length was obtained by RACE PCR; also called RAB2
For the molecule B7, in the experiment with rKv1.1N, the binding result is “no binding”.

B8: rat 1v (other)
chain: MPARVLLAYPGTEMLTQGESEGLQTLGIVVVLCSSLKLLHYLGLIDLSDDKIEDDLEMTMVCHRPEGLEQLEAQTNFTKRELQVLYRGFKNECPSGVVNEETFKQIYAQFFPHGDASTYAHYLFNAFDTTQTGSVKFEDFVTALSILLRGTVHEKLRWTFNLYDINKDGYINKEEMMDIVKAIYDMMGKYTYPVLKEDTPRQHVDVFFQKMDKNKDGIVTLDEFLESCQEDDNIMRSLQLFQNVM
notes: also called KChIP1; KchIP1
For B8, in experiment [1], the binding result is on record as “no binding”. In the experiment with rat Kv4.2 α-subunit [2], the “Kv4.2 current density in CHO cells, fold increase with coexpression of KChIP1” value stood at 12 fold and the “amplitude of the Kv4.2 current in CHO cells, fold increase in the presence of KChIP1” value was roughly 7.5 fold.

B9: rat 9qm (other)
chain: MRGQGRKESLSESRDLDGSYDQLTGHPPGPSKKALKQRFLKLLPCCGPQALPSVSENSVEDEFELSTVCHRPEGLEQLQEQTKFTRRELQVLYRGFKNECPSGIVNEENFKQIYSQFFPQGDSSNYATFLFNAFDTNHDGSVSFEDFVAGLSVILRGTIDDRLSWAFNLYDLNKDGCITKEEMLDIMKSIYDMMGKYTYPALREEAPREHVESFFQKMDRNKDGVVTIEEFIESCQQDENIMRSMQLFDNVI
On to B9, for which the binding result with rat Kv4.2 α-subunit [3] is listed as “binds”.
